The target of the experiment is profilin from bovine brain (profilin of the high-affinity profilactin complex) (bovine (endogenous in bovine brain)) (UniProt P02584).
Chain of UniProt P02584 (P02584 whole entry, one chain of several): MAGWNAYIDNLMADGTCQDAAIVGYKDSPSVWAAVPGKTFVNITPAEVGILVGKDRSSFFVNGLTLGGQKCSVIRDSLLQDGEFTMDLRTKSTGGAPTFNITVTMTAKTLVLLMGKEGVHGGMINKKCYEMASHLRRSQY

In the case of “actin from bovine brain (actin of the high-affinity profilactin complex) (from UniProt P60712 1-375) (natural protein)”, the stoichiometry N (actin/profilin molar ratio) was found to be 1.

These data come from paper PMC2289477.
